Experimental findings from PMC8904820 are described below.

This experiment addresses HRT1-REF bridging protein (HRBP) (Hevea brasiliensis).

Substance “Hevea rubber transferase 1 (HRT1) (enzyme)” came in with a prenyltransferase activity of HRT1/HRBP-nanodisc complexes, raw [14C]IPP incorporation (12.5 nCi [14C]IPP in the reaction) of 12200 dpm.
